Columns and labels:
[1] = Storage stability of lysozyme in dried coating on microneedle arrays, HPLC content; type: physicochemical; conditions: 10 mg/mL lysozyme in PBS; for Percent of Initial Lysozyme Content in the Coating, Initial: freshly coated reference standard, about 4° C.; for Percent of Initial Lysozyme Content in the Coating, Day 1 / Percent of Initial Lysozyme Content in the Coating, Day 3 / Percent of Initial Lysozyme Content in the Coating, Day 7 / Percent of Initial Lysozyme Content in the Coating, Day 14: stored 40° C., 96% RH
Description: (§1) The protein or polypeptide content in the formulation coated on the microneedle arrays was determined using an Agilent 1100 HPLC system (Agilent Technologies, Wilmington, Del.) equipped with a binary pump, well-plated thermostated autosampler, thermostated column compartment, and a diode array UV detector. A Zorbax 300SB-C8 column (Agilent Technologies, Wilmington, Del.) having a 5 μm particle size and 2.1×150 mm inner diameter was used for the separations. The column was maintained at 50° C. The mobile phase consisted of two eluents. Eluent A was 0.1% TFA (trifluoroacetic acid) in water and eluent B was 0.1% TFA in acetonitrile (Spectrum Chemical, New Brunswick, N.J.). A linear gradient from 80/20 to 50/50 (A/B) was applied over 30 minutes. The flow rate was 0.4 mL/minute and the UV detection wavelength was set at 214 nm. The total run time was 34 minutes and the sample injection volume was 15 μL.
A sample formulation containing 10 mg/mL of lysozyme and 12 mg/mL of L-histidine monohydrochloride (His-HCl) in PBS was prepared. The pH of the sample formulation was 5.5-6.0. A control formulation was also prepared containing 10 mg/mL of lysozyme in PBS. […] The pH of the control formulation was 6.5. Microneedle arrays were coated with either the sample or the control formulation. The coating was applied by dropwise addition of 50 μL of the formulation to the portion of the array defined by the octagon shaped pattern of microneedles. The flood coated arrays (both sample and control formulation coated) were dried in an oven at 35° C. for about 15 hours.
After drying, the coated arrays were placed in a storage chamber that was maintained at 40° C. and 96% relative humidity (RH). The lysozyme content of the coated arrays was determined following storage in the chamber for 1, 3, 7, and 14 days. At the designated time point, an array was taken from the chamber and washed with PBS (2 mL) to remove the coating from the array. An aliquot of the resulting wash solution was analyzed for lysozyme content using the HPLC method described above. Reference standards were prepared by measuring the lysozyme content of freshly coated arrays (both sample and control formulation coated). The arrays used as reference standards were stored in a refrigerator at about 4° C. and analyzed within one day of being prepared. The percentage of undegraded lysozyme remaining in the coating at each time point was determined by measuring the peak area for lysozyme in the selected coating and dividing it by the peak area measured for lysozyme in the corresponding reference standard.
The same procedure as described in Example 7 was used with the exception that the sample formulation contained 12 mg/mL of L-arginine hydrochloride, instead of L-histidine monohydrochloride. The pH of the sample formulation was 6.5.

[2] = Storage stability of insulin in dried coating on microneedle arrays, HPLC content; type: physicochemical; conditions: 5 mg/mL insulin in 0.1 N acetic acid, pH 3.0-3.5; for Percent of Initial Insulin Content in the Coating, Initial: freshly coated reference standard, about 4° C.; for Percent of Initial Insulin Content in the Coating, Day 1 / Percent of Initial Insulin Content in the Coating, Day 3 / Percent of Initial Insulin Content in the Coating, Day 7 / Percent of Initial Insulin Content in the Coating, Day 14: stored 40° C., 96% RH
Description: as §1
The pH of the sample formulation was 3.0-3.5. […] The pH of the control formulation was 3.0-3.5. Microneedle arrays were coated with either the sample or the control formulation. The coating was applied by dropwise addition of 50 μL of the formulation to the portion of the array defined by the octagon shaped pattern of microneedles. The flood coated arrays (both sample and control formulation coated) were dried in an oven at 35° C. for about 15 hours.
After drying, the coated arrays were placed in a storage chamber that was maintained at 40° C. and 96% relative humidity (RH). […] At the designated time point, an array was taken from the chamber and washed with 0.1 N acetic acid (1 mL) to remove the coating from the array. […] The arrays used as reference standards were stored in a refrigerator at about 4° C. and analyzed within one day of being prepared.
[…] The pH of the sample formulation was 3.0-3.5.

[3] = Amino acid: L-Arginine (12 mg/mL Arg-HCl), pH 6.5
[4] = Amino acid: L-Histidine (12 mg/mL His-HCl), pH 5.5-6.0
[5] = Amino acid: None (control), pH 6.5
[6] = Amino acid: L-Arginine (12 mg/mL Arg-HCl)
[7] = Amino acid: L-Histidine (12 mg/mL His-HCl)

## lysozyme
[1]; [3]
  Percent of Initial Lysozyme Content in the Coating, Initial: 100%
  Percent of Initial Lysozyme Content in the Coating, Day 1: 52.6%
  Percent of Initial Lysozyme Content in the Coating, Day 3: 33.1%
  Percent of Initial Lysozyme Content in the Coating, Day 7: 22.4%
  Percent of Initial Lysozyme Content in the Coating, Day 14: 23.0%
[1]; [4]
  Percent of Initial Lysozyme Content in the Coating, Initial: 100%
  Percent of Initial Lysozyme Content in the Coating, Day 1: 100.0%
  Percent of Initial Lysozyme Content in the Coating, Day 3: 80.6%
  Percent of Initial Lysozyme Content in the Coating, Day 7: 60.1%
  Percent of Initial Lysozyme Content in the Coating, Day 14: 53.3%
[1]; [5]
  Percent of Initial Lysozyme Content in the Coating, Initial: 100%
  Percent of Initial Lysozyme Content in the Coating, Day 1: 26.9%
  Percent of Initial Lysozyme Content in the Coating, Day 3: 4.4%
  Percent of Initial Lysozyme Content in the Coating, Day 7: 1.9%
  Percent of Initial Lysozyme Content in the Coating, Day 14: 1.9%

## Insulin
[2]; [6]
  Percent of Initial Insulin Content in the Coating, Initial: 100%
  Percent of Initial Insulin Content in the Coating, Day 1: 75.4%
  Percent of Initial Insulin Content in the Coating, Day 3: 45.9%
  Percent of Initial Insulin Content in the Coating, Day 7: 27.1%
[2]; [7]
  Percent of Initial Insulin Content in the Coating, Initial: 100%
  Percent of Initial Insulin Content in the Coating, Day 1: 95.3%
  Percent of Initial Insulin Content in the Coating, Day 3: 93.5%
  Percent of Initial Insulin Content in the Coating, Day 7: 79.2%
  Percent of Initial Insulin Content in the Coating, Day 14: 34.9%
[2]; Amino acid: None (control)
  Percent of Initial Insulin Content in the Coating, Initial: 100%
  Percent of Initial Insulin Content in the Coating, Day 3: 0%
  Percent of Initial Insulin Content in the Coating, Day 7: 0%
  Percent of Initial Insulin Content in the Coating, Day 14: 0%
